Tests used:
[1] = biological target: Gloydius brevicauda basic phospholipase A2 (Gloydius brevicauda); experiment: inhibition of enzyme activity; PLA2 activity measured fluorometrically with 10-Pyrene-PC as substrate at various concentrations of LRG; apparent inhibition constant (Ki app) by non-linear least-squares analysis of relative PLA2 activity
[2] = biological target: Protobothrops flavoviridis leucine-rich α2-glycoprotein (LRG) (Protobothrops flavoviridis); experiment: SPR; BIAcore X; P. flavoviridis LRG amine-coupled to a CM5 chip; Cyt c or PLA2 as analyte; 25 °C; 50 mM HEPES, 0.05% Tween 20, pH 7.5, NaCl to ionic strength 0.2; 10 μL/min; 1:1 Langmuir model with drifting baseline, global fit; apparent Kd
[3] = biological target: Laticauda semifasciata leucine-rich α2-glycoprotein (LRG) (Laticauda semifasciata); experiment: SDS-PAGE under reducing and non-reducing conditions
[4] = biological target: Naja kaouthia leucine-rich α2-glycoprotein (LRG) (Naja kaouthia); experiment: as above
[5] = biological target: Protobothrops flavoviridis leucine-rich α2-glycoprotein (LRG) (Protobothrops flavoviridis); experiment: as above
[6] = biological target: T1, Protobothrops flavoviridis basic phospholipase A2 PL-X (Protobothrops flavoviridis, UniProt P06860 1-122); experiment: inhibition of enzyme activity; PLA2 activity measured fluorometrically with 10-Pyrene-PC as substrate at various concentrations of LRG; apparent inhibition constant (Ki app) by non-linear least-squares analysis of relative PLA2 activity; settings: both partners purified
T1 construct: Group II basic phospholipase A2 PL-X from the venom of Protobothrops flavoviridis; also called P. flavoviridis PL-X
T1 sequence: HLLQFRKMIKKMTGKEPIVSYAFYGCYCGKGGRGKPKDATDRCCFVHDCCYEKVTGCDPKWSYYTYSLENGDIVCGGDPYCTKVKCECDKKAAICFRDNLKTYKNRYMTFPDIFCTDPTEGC

[7] = biological target: the molecule itself; experiment: SDS-PAGE under reducing and non-reducing conditions

Chain of Gloydius brevicauda basic phospholipase A2 (Gloydius brevicauda) (O42187 17-138 limits assumed): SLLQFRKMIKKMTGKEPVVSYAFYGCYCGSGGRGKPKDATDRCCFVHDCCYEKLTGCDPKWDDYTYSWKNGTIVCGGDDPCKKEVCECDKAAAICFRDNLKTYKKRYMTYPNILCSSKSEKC

Elaphe climacophora leucine-rich α2-glycoprotein (PLIβ) (from UniProt C0STK7 24-332) (natural protein)
Ki [1]: 11.1 nM

Laticauda semifasciata cytochrome c (natural protein)
Kd [2]: 0.0149 nM

Laticauda semifasciata leucine-rich α2-glycoprotein (LRG) (natural protein)
Ki [1]: 1030 nM | stoichiometry N [3]: 2

Naja kaouthia leucine-rich α2-glycoprotein (LRG) (natural protein)
Ki [1]: 350 nM | stoichiometry N [4]: 2

Protobothrops flavoviridis leucine-rich α2-glycoprotein (LRG) (natural protein)
stoichiometry N [5]: 2

B1: Gloydius brevicauda leucine-rich α2-glycoprotein (PLIβ) (natural protein, UniProt O93233 24-331, looked up)
chain: VLYCPPTPAPENVTEFVCNSPSLHEFPTGFPARAKMISVEFTQVSSLGVEALQGLPNLQELHLSNNRLKTLPSGLFRNLPQLHTLDLSTNHLEDLPPEIFTNASSLILLPLSENQLAELHPSWFQTLGELRILGLDHNQVKEIPISCFDKLKKLTSLDLSFNLLRRLAPEMFSGLDNLEKLILESNPIQCIVGRTFHWHPKLTVLSLKNSSLTNIMGFFQPLEQLELLDLSDNELTTMEPPVYKTSANLSLDLSGNPWACDCRLDNLLTWVNEHNIHLYSKEEIVCASPKHFKGECATSLHKSQICPC
notes: PLIβ (snake LRG) of Gloydius brevicauda (Agkistrodon blomhoffii siniticus), from serum; also called G. brevicauda LRG; G. brevicauda PLIβ
Ki [6]: 26.1 nM | stoichiometry N [7]: 2

B2: Elaphe quadrivirgata PLIβ (natural protein)
chain: VLYCPPDPAPENITEFVCNSPSLHEFPTGFPVRTKLISVEFTQVSSLGVEALQGLPNLQELHLSNNRLKTLLSGLFRNLPELHTLDLSTNLLEDLPPEIFTSTTSLTLLSISENRLAKLRLSWFETLKELRILSLDNNQLKEVPISCFDKLEKLTFLDLSSNRLHRLSPDMFSGLDNLERLSLENNPIRCIAPKSFHGRPKLSIISLKNCSLTNIITGVFQPLNHLVLLDLSDNELTMLDPPVAIPSANLSLDLTGNPWACNCRMDNLLTWVKEHKIDLYSKEEIVCAFPKSFKGEEATSLHRSQICPC
stoichiometry N [7]: 2
